How the values were obtained:
[1] = target: T1, Tof1 (budding yeast) (S. cerevisiae, UniProt P53840 1-1238); assay: cryo-EM structure; budding yeast replisome: 150 nM CMG on fork DNA (39 nt 3′ flap, 60 nt 5′ flap) with 1.5-fold molar excess of Tof1-Csm3, Mrc1 and Pol α-primase; 25 mM HEPES-NaOH pH 7.6, 150 mM NaOAc, 0.5 mM TCEP, 500 μM AMP-PNP, 10 mM Mg(OAc)2, on ice; 10-30% glycerol gradient with glutaraldehyde and BS3 cross-linkers; conditions: both partners purified
T1 construct: Tof1, S. cerevisiae; stood in the assay as a subunit of m13; source: subunit of Tof1-Csm3 from S. cerevisiae strain yAE48, purified as described previously
T1 sequence: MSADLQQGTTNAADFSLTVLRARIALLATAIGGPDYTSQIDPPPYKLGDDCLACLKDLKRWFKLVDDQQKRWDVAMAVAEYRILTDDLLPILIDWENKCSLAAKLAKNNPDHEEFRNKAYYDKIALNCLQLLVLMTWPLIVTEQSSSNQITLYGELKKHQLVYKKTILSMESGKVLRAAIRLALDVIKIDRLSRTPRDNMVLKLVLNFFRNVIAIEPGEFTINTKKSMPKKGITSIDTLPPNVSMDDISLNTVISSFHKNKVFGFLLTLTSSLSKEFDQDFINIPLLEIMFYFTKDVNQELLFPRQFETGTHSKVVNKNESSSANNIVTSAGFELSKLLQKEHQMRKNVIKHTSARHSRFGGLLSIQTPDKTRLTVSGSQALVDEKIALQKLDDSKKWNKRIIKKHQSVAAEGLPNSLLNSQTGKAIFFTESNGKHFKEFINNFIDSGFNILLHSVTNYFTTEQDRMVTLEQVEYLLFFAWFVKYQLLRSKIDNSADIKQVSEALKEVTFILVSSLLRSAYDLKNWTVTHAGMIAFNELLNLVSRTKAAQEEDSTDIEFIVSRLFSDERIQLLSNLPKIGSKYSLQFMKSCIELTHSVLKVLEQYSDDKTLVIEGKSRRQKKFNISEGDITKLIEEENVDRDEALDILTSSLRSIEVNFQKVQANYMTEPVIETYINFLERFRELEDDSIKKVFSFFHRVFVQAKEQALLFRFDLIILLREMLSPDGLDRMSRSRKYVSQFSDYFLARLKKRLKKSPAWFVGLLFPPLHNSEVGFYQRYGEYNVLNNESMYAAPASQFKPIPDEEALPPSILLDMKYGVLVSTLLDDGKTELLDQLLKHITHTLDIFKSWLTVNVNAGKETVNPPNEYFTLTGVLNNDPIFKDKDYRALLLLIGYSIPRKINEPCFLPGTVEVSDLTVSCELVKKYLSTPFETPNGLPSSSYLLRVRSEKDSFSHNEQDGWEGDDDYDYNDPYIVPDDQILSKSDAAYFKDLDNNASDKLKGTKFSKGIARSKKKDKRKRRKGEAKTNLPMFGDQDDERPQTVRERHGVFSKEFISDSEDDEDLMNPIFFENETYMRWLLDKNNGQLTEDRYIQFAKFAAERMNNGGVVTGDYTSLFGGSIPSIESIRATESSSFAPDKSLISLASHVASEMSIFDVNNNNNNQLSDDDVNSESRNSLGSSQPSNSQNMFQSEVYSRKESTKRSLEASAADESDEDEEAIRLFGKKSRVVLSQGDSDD

[2] = target: T2, budding yeast CMG (Cdc45-Mcm2-7-GINS) replicative helicase (S. cerevisiae, UniProt Q08032 1-650; P29469 1-868; P24279 1-971; P30665 1-933; P29496 1-775; P53091 …); assay: as above; conditions: both partners purified
T2 construct: Cdc45, S. cerevisiae; Mcm2, S. cerevisiae; Mcm3, S. cerevisiae; Mcm4, S. cerevisiae (named only within Mcm2-7); Mcm5, S. cerevisiae; Mcm6, S. cerevisiae (named only within Mcm2-7); Mcm7, S. cerevisiae (named only within Mcm2-7); Psf1, subunit of GINS, S. cerevisiae; Psf2, subunit of GINS, S. cerevisiae; Sld5, subunit of GINS, S. cerevisiae; source: S. cerevisiae strain yJY197, expressed and …

binding result [1]: binds
binding result [2]: binds
B1: Mrc1 (budding yeast) (natural protein, S. cerevisiae)
chain: MDDALHALSSLTAKKRTTTYKKVAVPILDENDNTNGNGPNDIDNPPELTGNGFLFANATLNRVKNRLEGKKAPEQNHNNGKDRSENSLPTQLISNLYDGGEELEKSEVKDNSYSEKNVSSSFTQTQRIPVSIQQDKVFNVPIHSVNDGKPTQLIKEDGLVNETSQALKTPLTTGRPGATQRIDSSGATSQTQPIKSIEPQSQIITTSSNHSNALSPKIPIIPTELIGTSPLFQSIQNRGPDTQMDVPPQTAHDEDKTQAIGIPQATHQEQKTQIDTVAQTLQDEVPHTLKIREIQSELASEDSKREKARNVEYKKPQKPIPTKKFFSKESFLADFDDSSSNEDDDIKLENAHPKPVQNDDELHENKSVELNLTDETRINEKRVPLLSSYANNLKREIDSSKCITLDLDSDSDEYGDDDMDSIKLSKDESVLPISQLSKATILNLKARLSKQNQKLSQRPNKSKDPKVDHNVLLNTLRKASRKQILDHQKEVIETKGLKLEDMAKEKEIVENLLEQEILRNKRIRQKEKRREKLEENDFQLNAHDSGSDSGSESSGFALSGNEIADYESSGSENDNRRESDSEKEDDEIILKQKKSHHVKHIINESDSDTEVEAKPKEKADESLPKRIAINLGHYGDNIGEDTDKFQETNVLDTQNIEEVMAERNTIENEVKDDVYVNEEADEAIRRQLIDKEKLQLKQKEKEHEAKIKELKKRGVTNFFEMEAEESEDEWHGIGGADGEGSDDYDSDLEKMIDDYSKNNFNPHEIREMLAAENKEMDIKMINKILYDIKNGGFRNKRAKNSLELELSDDDEDDVLQQYRLKRRELMRKRRLEIGDDAKLVKNPKSSAFFESMVEDIIEYKNPFGAEEEYNLDITSTATDLDTQDNSINVGDNTGNNEQKPVDQKNKKVIISEDFVQKSLSFLKSNNYEDFETDKELSRIQHGNDEAIEDLYTLKQNSSIKSFTNSQTDSTTSKTVNTIIDLEKRPEDEDEVENGDTSLVGVFKHPSIIKSFASRTDINDKFKEGNKTVKILKSYKTVGSSKASITYMGKTRKLIAPKRKTEGSHRYHHDHHNKKMKMKTKTKSNKLFESGQDSFDN
notes: Mrc1, S. cerevisiae; several small sections modelled (S339-K323 as printed, D468-Q483, N842-E858); source: S. cerevisiae strain yJY32, expressed and purified as described previously

Source: publication PMC10501992, “How Pol α-primase is targeted to replisomes to prime eukaryotic DNA replication” (Molecular Cell, 2023)
